# Results as given in patent US20230135471A1, “UBIQUITIN VARIANTS WITH IMPROVED AFFINITY FOR 53BP1” (Integrated DNA Technologies, Inc., priority 2021, published 2023).
# Target: 53BP1 fragment (a.a. 1221-1718) fused to an adenylate cyclase fragment (two-hybrid) (UniProt Q12888)
# Test: not given
Substance,"percent GFP-positive E. coli cells, two-hybrid reporter, gate P5 [%]",% GFP+ [%]
i53-adenylate cyclase fragment fusion protein (two-hybrid) (designed binder),9,–
i53-DM (designed binder),0.1,0.1

# Target: 53BP1 fragment (a.a. 1221-1718) fused to an adenylate cyclase fragment (two-hybrid) (UniProt Q12888)
# Test: cell-based or functional assay
Substance,"GFP positive population, high selection pressure [%]","GFP positive population, low selection pressure [%]",Percent GFP Positive Rep 1 [%],Percent GFP Positive Rep 2 [%],Percent GFP Positive Rep 3 [%],Experiment 1 Average Enrichment [log2],Experiment 1 Rep 1 Enrichment [log2],Experiment 1 Rep 2 Enrichment [log2],Experiment 2 Average Enrichment [log2],Experiment 2 Rep 1 Enrichment [log2]
i53-adenylate cyclase fragment fusion protein (two-hybrid) (designed binder),3,17,9,7.6,11.8,–,–,–,–,–
i53 + E51D two-hybrid fusion (designed binder),–,–,–,–,–,0.52,0.31,0.72,0.61,0.29
i53 + D39W two-hybrid fusion (designed binder),–,–,–,–,–,0.99,0.9,1.09,0,0.86
i53 + S65R two-hybrid fusion (designed binder),–,–,–,–,–,1.14,1.15,1.13,1.1,1.48
i53 + K33Y two-hybrid fusion (designed binder),–,–,–,–,–,1.02,0.63,1.41,0.98,1.03
i53 + P38W two-hybrid fusion (designed binder),–,–,–,–,–,0.6,0.61,0.6,-0.59,-0.87
i53 + S57K two-hybrid fusion (designed binder),–,–,–,–,–,-0.4,-0.22,-0.58,0.15,-0.07
i53 + R54T two-hybrid fusion (designed binder),–,–,–,–,–,0.66,0.62,0.71,0.7,0.76
i53 + R42S two-hybrid fusion (designed binder),–,–,–,–,–,-0.08,-0.13,-0.02,0.23,0.05
i53 + M1R two-hybrid fusion (designed binder),–,–,–,–,–,0.1,-0.01,0.22,0.21,0.11
i53 + K66R two-hybrid fusion (designed binder),–,–,–,–,–,-0.69,-0.84,-0.54,0.55,0.13
i53 + M1T two-hybrid fusion (designed binder),–,–,–,–,–,0.68,0.79,0.56,0.61,0.63
i53 + S57A two-hybrid fusion (designed binder),–,–,–,–,–,0.37,0.29,0.46,0.03,-0.03
i53 + N25C two-hybrid fusion (designed binder),–,–,–,–,–,0.13,0.45,-0.19,0.26,0.31
i53 + N25S two-hybrid fusion (designed binder),–,–,–,–,–,0.26,0.18,0.34,0.33,0.27
i53 + E16T two-hybrid fusion (designed binder),–,–,–,–,–,0.88,1.12,0.64,0.3,0.27
i53 + S65Q two-hybrid fusion (designed binder),–,–,–,–,–,0,-0.02,0.02,0.12,0.01

Substance,"GFP positive population, high selection pressure [%]","GFP positive population, low selection pressure [%]",Percent GFP Positive Rep 1 [%],Percent GFP Positive Rep 2 [%],Percent GFP Positive Rep 3 [%],Experiment 1 Average Enrichment [log2],Experiment 1 Rep 1 Enrichment [log2],Experiment 1 Rep 2 Enrichment [log2],Experiment 2 Average Enrichment [log2],Experiment 2 Rep 1 Enrichment [log2]
i53 + K33W two-hybrid fusion (designed binder),–,–,–,–,–,-1.01,-2.04,0.01,0.15,0.35
i53 + K33M two-hybrid fusion (designed binder),–,–,–,–,–,2.34,2.3,2.37,1.06,1.51
i53 + N25F two-hybrid fusion (designed binder),–,–,–,–,–,0.38,0.42,0.34,-0.04,0.12
i53 + R42Y two-hybrid fusion (designed binder),–,–,–,–,–,1.57,1.44,1.69,1.19,1.13
i53 + D39G two-hybrid fusion (designed binder),–,–,–,–,–,-0.21,-0.2,-0.22,0.06,0.6
i53 + N25D two-hybrid fusion (designed binder),–,–,–,–,–,0.33,0.11,0.54,0.45,0.49
i53 + N25G two-hybrid fusion (designed binder),–,–,–,–,–,0.71,1.06,0.35,0.38,0.57
i53 + E18Q two-hybrid fusion (designed binder),–,–,–,–,–,0.72,0.61,0.83,0.03,0.02
i53 + P38K two-hybrid fusion (designed binder),–,–,–,–,–,-1.02,-2.14,0.1,0.25,-0.61
i53 + H68E two-hybrid fusion (designed binder),–,–,–,–,–,-1.08,-0.69,-1.48,0.1,0.33
i53 + T14D two-hybrid fusion (designed binder),–,–,–,–,–,2.88,2.9,2.86,1.53,1.65
i53 + L67Y two-hybrid fusion (designed binder),–,–,–,–,–,0.14,-0.58,0.86,0.58,0.5
i53 + S49A two-hybrid fusion (designed binder),–,–,–,–,–,0.5,0.62,0.39,0.41,0.76
i53 + Q31L two-hybrid fusion (designed binder),–,–,–,–,–,0.41,0.71,0.11,-0.15,-0.23
i53 + K63M two-hybrid fusion (designed binder),–,–,–,–,–,-0.07,-0.24,0.09,0.2,0.18
i53 + N25M two-hybrid fusion (designed binder),–,–,–,–,–,0.5,0.5,0.5,0.45,0.46

# Same assay, conditions: not given
row,Substance,Experiment 2 Rep 2 Enrichment [log2]
1,i53 + E51D two-hybrid fusion (designed binder),0.92
2,i53 + D39W two-hybrid fusion (designed binder),-0.85
3,i53 + S65R two-hybrid fusion (designed binder),0.72
4,i53 + K33Y two-hybrid fusion (designed binder),0.94
5,i53 + P38W two-hybrid fusion (designed binder),-0.32
6,i53 + S57K two-hybrid fusion (designed binder),0.36
7,i53 + R54T two-hybrid fusion (designed binder),0.64
8,i53 + R42S two-hybrid fusion (designed binder),0.41
9,i53 + M1R two-hybrid fusion (designed binder),0.3
10,i53 + K66R two-hybrid fusion (designed binder),0.97
11,i53 + M1T two-hybrid fusion (designed binder),0.6
12,i53 + S57A two-hybrid fusion (designed binder),0.08
13,i53 + N25C two-hybrid fusion (designed binder),0.21
14,i53 + N25S two-hybrid fusion (designed binder),0.38
15,i53 + E16T two-hybrid fusion (designed binder),0.33
16,i53 + S65Q two-hybrid fusion (designed binder),0.24

row,Substance,Experiment 2 Rep 2 Enrichment [log2]
1,i53 + K33W two-hybrid fusion (designed binder),-0.06
2,i53 + K33M two-hybrid fusion (designed binder),0.61
3,i53 + N25F two-hybrid fusion (designed binder),-0.2
4,i53 + R42Y two-hybrid fusion (designed binder),1.26
5,i53 + D39G two-hybrid fusion (designed binder),-0.49
6,i53 + N25D two-hybrid fusion (designed binder),0.41
7,i53 + N25G two-hybrid fusion (designed binder),0.19
8,i53 + E18Q two-hybrid fusion (designed binder),0.05
9,i53 + P38K two-hybrid fusion (designed binder),1.11
10,i53 + H68E two-hybrid fusion (designed binder),-0.13
11,i53 + T14D two-hybrid fusion (designed binder),1.4
12,i53 + L67Y two-hybrid fusion (designed binder),0.65
13,i53 + S49A two-hybrid fusion (designed binder),0.06
14,i53 + Q31L two-hybrid fusion (designed binder),-0.06
15,i53 + K63M two-hybrid fusion (designed binder),0.22
16,i53 + N25M two-hybrid fusion (designed binder),0.43
